Numbering of substitutions follows the chain as printed.
T1: human LIV-1 (human, UniProt Q13433 29-755)
T1 sequence (looked up): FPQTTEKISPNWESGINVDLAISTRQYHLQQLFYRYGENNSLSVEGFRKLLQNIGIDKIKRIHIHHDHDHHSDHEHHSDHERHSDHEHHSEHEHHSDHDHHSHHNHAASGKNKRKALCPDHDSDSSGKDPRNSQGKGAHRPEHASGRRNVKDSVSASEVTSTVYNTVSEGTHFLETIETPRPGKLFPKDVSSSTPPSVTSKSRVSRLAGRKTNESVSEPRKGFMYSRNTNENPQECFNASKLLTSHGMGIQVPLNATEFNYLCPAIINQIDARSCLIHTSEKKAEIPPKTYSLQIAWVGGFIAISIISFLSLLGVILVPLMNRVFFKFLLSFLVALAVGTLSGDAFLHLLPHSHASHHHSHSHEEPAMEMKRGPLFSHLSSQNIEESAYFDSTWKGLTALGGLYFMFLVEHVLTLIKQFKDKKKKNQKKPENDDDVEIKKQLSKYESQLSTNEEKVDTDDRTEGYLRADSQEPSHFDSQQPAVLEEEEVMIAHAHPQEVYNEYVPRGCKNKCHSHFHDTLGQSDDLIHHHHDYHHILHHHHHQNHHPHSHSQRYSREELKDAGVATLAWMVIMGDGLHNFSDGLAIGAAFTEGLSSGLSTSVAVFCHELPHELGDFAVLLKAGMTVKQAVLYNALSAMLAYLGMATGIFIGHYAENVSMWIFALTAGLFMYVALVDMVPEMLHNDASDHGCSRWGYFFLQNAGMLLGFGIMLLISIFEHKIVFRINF

B1: 282G5A2 (antibody, V domains shown)
VH: QVQLQQSGAELVRPGTSVKVSCKASGYALTKYLIEWIKQRPGQGLEWIGVINPGNAGNNYNEKFKGKATLTVDQSSSTAYMQLSSLTSEDSAVYFCARRGRDYAMDNWGQGTSVTVSS
VL: EIVLTQSPAIMSASLGEKVTMSCRASSSINYIYWYQQKSDASPKLWIYYTSNLAPGVPARFSGSGSGNSYSLTISSMEDEDAATYYCQQFTSSPLTFGAGTKLELK
notes: Tested as chimeric antibody
B2: 136F3D10C10 (antibody, V domains shown)
VH: QVQLQQSGPELVKPGASVRIFCKASGYTFTSFHIHWVKQRPGQGLEWIGWIYPGNDNTDHNEKFKGKATLSADKSSSTVYMQLSSLTSEDSAVYFCGRSNYYGPLFAYWGQGTLVTVSA
VL: DILMTQTPLSLPVSLGDQASISCRSSQNIVRSNGNTYLEWYLQKPGQSPKVLIYRVSNRFSGVPDRFSGSGSGTDFTLKISRVEAEDLGVYYCFQGSYVPYTFGGGTKLEIK
notes: Tested as chimeric antibody
B3: 248H1G3 (antibody, V domains shown)
VH: EVQLQQSGPELMKRGASVKISCKTSTFTFTEFTIHWVKQSHGKSLEWIGGINPNTGGTSYNQNFTGKATLTVDKSSITAYMELRSLTSEDSAIYYCAPNWDGYWFFDVWGAGTTVTVSS
VL: DIQMTQSPASLSASVGETVTITCRASGNIQNYLAWYQQKQGKSPQLLVYGAKTLADGVPSRFSGSGSGTQFSLKINSLQPEDFGSYYCQHFWSPPLTFGAGTKLELK
notes: Tested as chimeric antibody
B4: 286B5E6 (antibody, V domains shown)
VH: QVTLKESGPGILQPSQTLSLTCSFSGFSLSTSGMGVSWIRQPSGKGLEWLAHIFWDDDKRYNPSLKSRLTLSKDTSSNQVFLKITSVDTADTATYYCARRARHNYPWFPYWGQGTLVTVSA
VL: DIVLTQSPASLAVSLGQRATISCKASQSVDYDGDSYMNWYQQKPGQPPKLLIYAASNLESGIPARFSGSGSGTDFTLNIHPVEEEDAATYYCQQSNEGPYTFGGGTKLEIK
notes: Tested as chimeric antibody
B5: 293F10B6 (antibody, V domains shown)
VH: QVTLKESGPGMLQPSQTLNLTCSFSGFSLNTSGMGVSWIRQPSGKGLEWLAHIFWDDDKRYNPSLKSRLTISKDVSSNQVFLKITSVDTADTATYFCARRARNNYPWFPYWGQGTLVTVSA
VL: B4 VL with E59D, V82M, E84D, A87V, E97G, G98A, Y100F
notes: Tested as chimeric antibody
B6: 135C6E7 (antibody, V domains shown)
VH: EVQLVESGGGLVQPKGSLKLSCAASGFTFNTYAMNWVRQAPGKGLEWVARIRSKYNSYATYYADSVKDRFTISRDDSQSILYLQMNNLKTEDTAMYYCVRHEDYDGGFAYWGQGTLVTVSA
VL: DIVMSQSPSSLAVSVGEKVTMSCKSSQSLFKSRTRKNYLAWYQQKPGQSPKLLIYWASTRESGVPDRFTGSGSGTDFTLTISSVQAEDLAVYYCKESYNLMYTFGGGTKLEIK
notes: Tested as chimeric antibody
B7: 108H1D4 (antibody, V domains shown)
VH: EVKLVESGGDLVQPGGSRKLSCAASGFTFSDYGMAWFRQAPGKGPEWVAFISNLAYNIYYADTVTGRFTISRENARNTLYLEMSSLRSEDTAMYYCAREGGITTVPATDYFDYWGQGTTLTVSS
VL: DIQMTQTTSSLSASLGDRVTFSCRASQDIRNYLNWYQQKPDGTVKLLIYYTSRLHSGVPSRFSGSGSGTDYSLTINNLEQEDLATYFCQQVNALPLTFGAGTKLELK
notes: Tested as chimeric antibody
B8: 124H4D11.p2.z4-Eribulin (antibody, V domains shown)
VH: QVQLVQSGAEVVKPGASVKVSCKASGFNIKDYYMHWVRQAPGQGLEWIGWIDPENDDTEYDPKFQGRVTMTADTSTSTVYMELSSLRSEDTAVYYCAARYYAFDYWGQGTMVTVSS
VL: DVLMTQSPLSLPVTLGQPASISCRSSQSIVHSNANTYLEWYLQRPGQSPRLLIYKVSNRFSGVPDRFSGSGSGTDFTLKISRVEAEDVGVYYCFQGSQVPPTFGQGTKLEIK
modifications: Eribulin drug moiety conjugated; site and chain not stated
notes: Antibody-drug conjugate of 124H4D11.p2.z4; human gamma 1/kappa
B9: 124H4D11.p2.z4-MMAE (antibody, V domains shown)
VH: B8 VH
VL: B8 VL
modifications: MMAE drug moiety conjugated; site and chain not stated
notes: as for B8
B10: 5D6B10.z7-Eribulin (antibody, V domains shown)
VH: QVQLVQSGGGVVQPGRSLRLSCTVSGFSLTTYGIHWVRQSPGKGLEWLGVIWTGGTTDYNAAFISRLTISKDNSKSTVYFQMNSLQAEDTAIYYCARGPSSYWGQGTLVTVSS
VL: EIVMTQSPATLSVSPGERATLSCKASQNVDTNVVWYQQKPGQSPRALIYSASYRYSGVPARFSGSGSGTEFTLTISSLQSEDFAVYFCQQYNNYPWTFGQGTKVEIK
modifications: Eribulin drug moiety conjugated; site and chain not stated
notes: Antibody-drug conjugate of 5D6B10.z7; human gamma 1/kappa
B11: 5D6B10.z7-MMAE (antibody, V domains shown)
VH: B10 VH
VL: B10 VL
modifications: MMAE drug moiety conjugated; site and chain not stated
notes: as for B10
B12: 290F10G10.z2-Eribulin (antibody, V domains shown)
VH: EVQLVQSGAEVKKPGASVKVSCKASGYTFTSYWIHWVRQAPGQGLEWMGTIYPGDADTRSTQKFKDRVTMTADTSTSTVYMELSSLRSEDTAVYYCARSLIHDDYDKYYFDYWGQGTTVTVSS
VL: DIQMTQSPSSLSASVGDRVTITCKARQDINKYIAWYQQKPGKAPKLLIHYTSILQPGIPSRFSGSGSGRDYTFTISSLQPEDIATYYCLQYDYFFTFGGGTKVEIK
modifications: Eribulin drug moiety conjugated; site and chain not stated

What follows are binders tested against T1, human LIV-1 (assay: cell-based or functional assay).

ADCC reporter EC50 [nM]	ADCC reporter Top (RFU)	Binder
1.2	11300	B1
4.8	83900	B2
0.5	61600	B3
1.1	47800	B4
7.9	133000	B5
6.4	53100	B6
8.3	139000	B7

Molecular target: T1, human LIV-1
Test: cell-based or functional assay
Remark: another data set of the same source

Internalization EC50 [nM]	Internalization Top (RFU)	Binder
41.2	227000	B1
32.2	835000	B2
4.6	357000	B3
4.6	448000	B4
6.1	495000	B5
12.4	675000	B6
4.8	511000	B7

Molecular target: T1, human LIV-1
Test: cell-based or functional assay
Remark: another data set of the same source

Binder	Cell viability(%)	Cytotoxicity IC50 [nM]
B1	8.58	12.1
B2	16.3	1.21
B3	3.31	2.99
B4	4.88	1.39
B5	3.41	1.46
B6	17.6	4.6
B7	17.3	0.7

Molecular target: T1, human LIV-1
Test: cell-based or functional assay
Remark: another data set of the same source

Binder	Min cell viability %, BT20/H_LIV-1 High [%]	Min cell viability %, BT20/H_LIV-1 Low [%]	Min cell viability %, HEK293/H_LIV-1 [%]
B8	20.7	37.9	21.5
B9	18.6	40.3	15.8
B10	31.5	42.9	21.2
B11	28.4	43.5	15
B12	17.6	38.4	18.4

The binders below were run against T1, human LIV-1 (assay: FACS, HEK293/H_LIV-1 cells).
How it was run: (§1)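 HEK293 cells over-expressing human or cyno LIV-1 incubated with chimeric Abs (from 100 nM, 5-fold dilutions, 8 points) for 60 min at 4 °C, then fluorescent secondary antibody 30 min at 4 °C; washes in 2% FBS/PBS. Binding read by flow cytometry; EC50 from the titration curve.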

EC50 [nM]	Top (MFI)	Binder
1.12	19700	B1
0.85	7910	B2
0.89	9640	B3
0.32	8090	B4
0.45	8100	B5
3.6	16500	B6
0.9	8800	B7

Molecular target: T1, human LIV-1
Test: FACS, HEK293/H_LIV-1 cells
Remark: another data set of the same source
Experimental: (§2) Cell based binding of ADC and naked of ADC on human LIV-1 expressing cells were assessed using flow cytometry. Briefly, HEK293/H_LIV-1, both low- and high-expressing H-LIV1-positive cell lines were incubated with ADC and naked of ADC (from 100 nM, 6 folds dilution, 8 points), respectively. After incubation at 4° C. for 60 minutes, the cells were washed with FACS buffer twice, then stained with fluorescent conjugated secondary antibody at 4° C. for 30 minutes. After that the cells were washed twice and analyzed by flow cytometry.

EC50 [nM]	Top (MFI)	Binder
0.1	19400	B8
0.08	20200	B9
0.47	98700	B10
0.51	96400	B11
0.55	18800	B12

These binders were tested against T1, human LIV-1 (assay: FACS, BT20/H_LIV-1 Low cells).
Experimental: as §2

EC50 [nM]	Top (MFI)	Binder
0.05	3100	B8
0.07	3420	B9
0.5	37200	B10
0.5	35300	B11
1.14	3620	B12

The binders below were run against cynomolgus LIV-1 (cynomolgus, UniProt A0A2K5WH46 30-741) (assay: FACS, HEK293/Cyno_LIV-1 cells).
How it was run: as §1

EC50 [nM]	Top (MFI)	Binder
0.87	13000	B1
0.76	3450	B2
2.05	2700	B3
0.55	2490	B4
0.98	2250	B5
2.69	6290	B6
130	762	B7

Each binder was assayed against T1, human LIV-1 (assay: FACS, BT20/H_LIV-1 High cells).
Experimental: as §2

EC50 [nM]	Top (MFI)	Binder
0.1	19200	B8
0.11	20000	B9
0.87	154000	B10
0.98	149000	B11
1.2	21000	B12

From US20240325555A1 (LANOVA MEDICINES, published 2024)
